Kd, koff and kon data for four molecules are collected here from patent US20200123267A1 (Genentech, published 2020).

Where a chain is given by its changes, count along the chain named. Names may count otherwise.

A word on the Kd: it is the free concentration of one partner at which half of the binding sites on the other are occupied at equilibrium, for simple one-to-one binding. By koff is commonly meant the first-order rate constant of dissociation. Low values mean slow dissociation, high ones fast dissociation. Broadly, the kon is the rate constant with which the complex forms. A low value points to slow association.

Experiment [1] concerns the target Human TfR extracellular domain containing an N-terminal His tag (human) (UniProt P02786). As to the kind of experiment: SPR, monovalent, TfR captured via anti-His, bispecific injected.
Experiment [2] has the same target. As to the kind of experiment: SPR, bispecific antibody. (SPR reads the build-up and loss of mass on a sensor chip optically.)
In experiment [3] the target is T1, TfR (species and construct not stated, Table 13) (Homo sapiens (Human), UniProt P02786 89-760).
T1 construct: not shown: N-terminal His tag of the soluble TfR ecd construct
T1 sequence (P02786 89-760 G142S limits assumed): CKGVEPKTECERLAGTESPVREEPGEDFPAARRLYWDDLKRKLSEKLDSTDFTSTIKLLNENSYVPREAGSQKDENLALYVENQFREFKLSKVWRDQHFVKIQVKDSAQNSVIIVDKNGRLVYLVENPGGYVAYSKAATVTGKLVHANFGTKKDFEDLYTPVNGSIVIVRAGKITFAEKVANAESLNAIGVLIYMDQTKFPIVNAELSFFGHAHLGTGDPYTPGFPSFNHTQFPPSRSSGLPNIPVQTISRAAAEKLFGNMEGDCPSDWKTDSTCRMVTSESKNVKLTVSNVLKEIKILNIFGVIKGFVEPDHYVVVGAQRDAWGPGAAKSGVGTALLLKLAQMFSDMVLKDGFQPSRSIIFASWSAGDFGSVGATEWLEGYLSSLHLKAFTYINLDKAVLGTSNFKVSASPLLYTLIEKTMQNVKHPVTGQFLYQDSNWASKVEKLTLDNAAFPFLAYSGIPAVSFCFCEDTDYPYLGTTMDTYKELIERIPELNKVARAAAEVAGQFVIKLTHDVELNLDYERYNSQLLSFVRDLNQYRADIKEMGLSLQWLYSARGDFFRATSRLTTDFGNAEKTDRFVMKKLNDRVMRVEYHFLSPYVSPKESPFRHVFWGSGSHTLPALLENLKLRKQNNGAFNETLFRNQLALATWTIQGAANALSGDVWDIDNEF
Put plainly: kinetic measurement, method not stated.

Chain of Human TfR extracellular domain containing an N-terminal His tag (human) (P02786 89-760 G142S): as the sequence (P02786 89-760 G142S limits assumed) above

B1: anti-TfR^2/BACE1 bispecific antibody (15G11.W92A arm, human IgG1 D265A N297G, knob in hole) (bispecific antibody, part only; not given: Anti-BACE1 arm and constant regions, V domains shown, not shown: another chain or arm of the molecule; a dimerising Fc or GST; small tags and cut ends)
VH: EVQLVQSGAEVKKPGASVKVSCKASGYTFTSYWMHWVRQAPGQRLEWIGEINPTNGRTNYIEKFKSRATLTVDKSASTAYMELSSLRSEDTAVYYCARGTRAYHYWGQGTMVTVSS
VL: DIQMTQSPSSLSASVGDRVTITCRASDNLYSNLAWYQQKPGKSPKLLVYDATNLADGVPSRFSGSGSGTDYTLTISSLQPEDFATYYCQHFAGTPLTFGQGTKVEIK
B1: in experiment [1], the Kd came out at 295 nM, the koff turned out to be 0.0377 s⁻¹ and the kon was found to be 128000 M⁻¹ s⁻¹. The same molecule had a Kd in experiment [2] of 270 nM.

B2: antiTfR.52A.M108L.Fab (Fab, V domains shown)
VH: B1 VH with N52A, M111L
VL: B1 VL with A92W
notes: Fab; also called anti-TfR Fab comprising the M108L mutation
With B2, in experiment [3], the koff was 0.0231 s⁻¹ and the kon worked out at 320000 M⁻¹ s⁻¹.

B3: anti-TfR^1/BACE1 bispecific antibody (15G11.v5 arm, human IgG1 D265A N297G, knob in hole) (bispecific antibody, part only; not given: Anti-BACE1 arm and constant regions, V domains shown, not shown: another chain or arm of the molecule; a dimerising Fc or GST; small tags and cut ends)
VH: B1 VH
VL: B1 VL with A92W
Regarding B3, the Kd in experiment [2] stood at 10 nM.

B4: Hu15G11.HC52A Fab (Fab, V domains shown)
VH: B1 VH with N52A
VL: B1 VL with A92W
notes: Fab; also called antiTfR.52A.Fab; 15G11.52A Fab
Regarding B4, in experiment [3], the koff came to 0.0204 s⁻¹ and the kon turned out to be 371000 M⁻¹ s⁻¹.
